Source: patent US20220153864A1 (Pieris, published 2022)

Assays:
[1] = target: T1, human CD137 expressed on cells (Flp-In-CHO::huCD137; NFkB-luc2/CD137 Jurkat cells) (human, UniProt Q07011 24-255); assay: flow cytometry on Flp-In-CHO::huCD137 cells, anti-human IgG detection
T1 construct: whole, on cells; also called human CD137-expressing cells
Method: (§1) For flow cytometric analysis, respective cell lines were incubated with an exemplary fusion protein (SEQ ID NOs: 87 and 82), the GPC3 antibody or the CD137 specific lipocalin mutein (Fc fusion) as included in the fusion protein (SEQ ID NOs: 81 and 82 and SEQ ID NO: 98, respectively), a reference CD137 antibody SEQ ID NOs: 26 and 27, or an isotype control (SEQ ID NOs: 24 and 25) and detected using a fluorescently labeled anti-human IgG antibody in FACS analysis as described in the following:
(§2) 5×10⁴ cells per well were incubated for 1 h in ice-cold PBS containing 5% fetal calf serum (PBS-FCS). A dilution series of the testing molecule were added to the cells and incubated for 1 h on ice. Cells were washed twice with PBS and then incubated with a goat anti-hlgG Alexa647-labeled antibody or goat anti-hlgG Alexa488-labeled antibody for 30 min on ice. Cells were subsequently washed and analyzed using iQue Flow cytometer (Intellicyte Screener). Mean geometric fluorescent signals were plotted and fitted with Graphpad software. The geometric means of the fluorescence intensity were used to calculate EC₅₀ values using a four-parameter logistic regression with bottom fixed to background.

[2] = target: T2, human GPC3 expressed on cells (SK-Hep1::huGPC3; HepG2, Hep3B and MKN-45 tumor cells) (human, UniProt P51654 25-554); assay: flow cytometry, SK-Hep1 cells transfected with human GPC3, detection labelled anti-human IgG, GeoMean BL1-H [lower graph]
T2 construct: whole, on cells; also called GPC3-positive tumor cells; human GPC3-expressing cells
Method: as §1, §2

[3] = target: T1, human CD137 expressed on cells …; assay: cell-based or functional assay
[4] = target: T3, recombinant human GPC3 (huGPC3) (R&D Systems) (human, UniProt P51654 25-559); assay: SPR (Biacore T200), binder captured by anti-human IgG Fc, huGPC3 as analyte, 1:1 model
T3 construct: also called biotinylated huGPC3
Method: (§3) The anti-human IgG Fc antibody (GE Healthcare) was immobilized on a CM5 sensor chip using standard amine chemistry: the carboxyl groups on the chip were activated using 1-ethyl-3-(3-dimethylaminopropyl)-carbodiimide (EDC) and N-hydroxysuccinimide (NHS). Subsequently, anti-human IgG Fc antibody solution (GE Healthcare) at a concentration of 25 μg/mL in 10 mM sodium acetate (pH 5.0) was applied at a flow rate of 5 μL/min until an immobilization level of 6000-10000 resonance units (RU) was achieved. Residual non-reacted NHS-esters were blocked by passing a solution of 1M ethanolamine across the surface. The reference channel was treated in an analogous manner. Subsequently, testing fusion proteins (SEQ ID NOs: 87 and 82 and CD137Ac1-Fusion 1) or the GPC3 antibody as included in the fusion protein (SEQ ID NOs: 81 and 82) at 0.2 μg/ml in HBS-EP+ buffer was captured by the anti-human IgG-Fc antibody at the chip surface for 180 s at a flow rate of 10 μL/min. After each capture step, the needle was washed.
(§4) The binding assay was carried out with a contact time of 180 s, a dissociation time of 900 s, and a flow rate of 30 μL/min. After each injection, the needle was cleaned with 40 mM NaOH+20% isopropanol. All measurements were performed at 25° C. […] Prior to the protein measurements, three startup cycles were performed for conditioning purposes. Data were evaluated with Biacore T200 Evaluation software (v2.0). Double referencing was used and the 1:1 binding model was used to fit the raw data.

[5] = target: T2, human GPC3 expressed on cells …; assay: flow cytometry, SK-Hep1 cells transfected with human GPC3, detection labelled anti-human IgG, GeoMean RL1-H [upper graph]
Method: as §1, §2

[6] = target: T2, human GPC3 expressed on cells …; assay: flow cytometry on SK-Hep1::huGPC3 cells, anti-human IgG detection
Method: as §1, §2

[7] = target: T4, recombinant cynomolgus GPC3 (cyGPC3) (R&D Systems) (cynomolgus, UniProt A0A2K5VK50 24-558); assay: ELISA, cyGPC3 coated
Method: (§5) Recombinant huGPC3 (R&D Systems) at the concentration of 1 μg/mL in PBS was coated overnight on microtiter plates at 4° C. After five washes with 100 μL PBS-0.05% T (PBS supplemented with 0.05% (v/v) Tween 20), the plates were blocked with 2% BSA (w/v) in PBS-0.1% T (PBS-0.1% T-2% BSA) for 1 h at room temperature. After washing with 100 μL PBS-0.05% T (PBS supplemented with 0.05% (v/v) Tween 20) five times, exemplary fusion proteins (SEQ ID NOs: 87 and […] and CD137Ac1-Fusion 1 to 7) or the GPC3 antibody as include in the fusion proteins (SEQ ID NOs: 81 and 82) at different concentrations were added to the wells and incubated for 1 h at room temperature, followed by another wash step. Bound molecules under study were detected by incubation with 1:5000 diluted anti-human IgG Fc-HRP (Jackson Laboratory) in PBS-0.1% T-2% BSA. After an additional wash step, fluorogenic HRP substrate (QuantaBlu, Thermo) was added to each well and the fluorescence intensity was detected using a fluorescence microplate reader.
The same ELISA setup was also employed to determine the binding potency of fusion proteins to cynomolgus GPC3 and huCD137, where recombinant cyGPC3 (R&D Systems) or huCD137-His (recombinant human CD137 with C-terminal polyhistidine tag, R&D Systems) was instead coated on a microtiter plate. The testing agents were similarly titrated and bound agents were detected via anti-NGAL-HRP. […]

[8] = target: T3, recombinant human GPC3 (huGPC3) (R&D …); assay: ELISA, huGPC3 coated, detection anti-human IgG Fc-HRP
Method: as §5
Exemplary results are depicted in FIG. 2A-2D, together with the fit curves resulting from a 1:1 binding sigmoidal fit, where the EC₅₀ value and the maximum signal were free parameters, and the slope was fixed to unity.

[9] = target: T1, human CD137 expressed on cells …; assay: flow cytometry, CHO cells transfected with human CD137, detection labelled anti-human IgG, GeoMean RL1-H [upper graph]
Method: as §1, §2

[10] = target: T2, human GPC3 expressed on cells …; assay: flow cytometry on MKN-45 tumor cells (GPC3 moderate)
Method: as §2
(§6) For flow cytometric analysis, tumor cell lines with different GPC3 expression levels (high to moderate expression: HepG2>Hep3B>MKN-45) and GPC3 negative cell line NCI-N87 were incubated with an exemplary fusion protein SEQ ID NOs: 87 and 82, the GPC3 antibody or the CD137 specific lipocalin mutein (Fc fusion) as included in the fusion protein (SEQ ID NOs: 81 and 82 and SEQ ID NO: 98, respectively), a reference CD137 antibody SEQ ID NOs: 26 and 27, or an isotype control (SEQ ID NO: 24 and 25), and detected using a fluorescently labeled anti-human IgG antibody as described in Example 6.

[11] = target: T4, recombinant cynomolgus GPC3 (cyGPC3) …; assay: SPR (Biacore T200), binder captured by anti-human IgG Fc, cyGPC3 as analyte, 1:1 model
Method: as §3, §4

[12] = target: T2, human GPC3 expressed on cells …; assay: flow cytometry on HepG2 tumor cells (GPC3 high)
Method: as §2, §6

[13] = target: T5, huCD137-His (recombinant human CD137 with C-terminal polyhistidine tag, R&D Systems) (human, UniProt Q07011 24-186); assay: ELISA, huCD137-His coated, binder titrated to 100 nM, detection anti-NGAL-HRP per paragraph 342 (the antibody itself carries no lipocalin mutein) [upper graph]
T5 construct: also called biotinylated huCD137-His; not shown: C-terminal polyhistidine tag

[14] = target: T2, human GPC3 expressed on cells …; assay: flow cytometry on Hep3B tumor cells (GPC3 positive)
Method: as §2, §6

T1 sequence (Q07011 24-255): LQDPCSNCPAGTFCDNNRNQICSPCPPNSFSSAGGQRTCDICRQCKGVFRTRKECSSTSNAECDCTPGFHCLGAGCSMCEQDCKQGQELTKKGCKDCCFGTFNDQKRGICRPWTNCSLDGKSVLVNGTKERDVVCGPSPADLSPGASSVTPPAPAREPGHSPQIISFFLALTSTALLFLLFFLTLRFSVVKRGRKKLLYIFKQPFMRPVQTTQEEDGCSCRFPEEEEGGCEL
T3 sequence (P51654 25-559 limits assumed): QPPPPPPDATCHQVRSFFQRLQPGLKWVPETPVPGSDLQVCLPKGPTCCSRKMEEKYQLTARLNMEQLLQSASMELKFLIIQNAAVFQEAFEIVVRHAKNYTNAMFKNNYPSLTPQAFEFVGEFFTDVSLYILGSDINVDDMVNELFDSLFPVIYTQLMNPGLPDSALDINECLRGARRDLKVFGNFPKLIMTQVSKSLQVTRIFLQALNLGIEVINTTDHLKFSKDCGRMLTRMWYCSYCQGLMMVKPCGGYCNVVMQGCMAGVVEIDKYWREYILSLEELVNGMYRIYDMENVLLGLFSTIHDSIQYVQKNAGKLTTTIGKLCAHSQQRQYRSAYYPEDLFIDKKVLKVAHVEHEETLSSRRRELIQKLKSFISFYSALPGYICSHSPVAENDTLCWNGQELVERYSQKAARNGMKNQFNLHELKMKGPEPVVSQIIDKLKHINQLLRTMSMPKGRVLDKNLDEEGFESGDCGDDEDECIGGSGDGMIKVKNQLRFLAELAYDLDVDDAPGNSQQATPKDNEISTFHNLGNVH
T2 sequence (P51654 25-554 limits assumed): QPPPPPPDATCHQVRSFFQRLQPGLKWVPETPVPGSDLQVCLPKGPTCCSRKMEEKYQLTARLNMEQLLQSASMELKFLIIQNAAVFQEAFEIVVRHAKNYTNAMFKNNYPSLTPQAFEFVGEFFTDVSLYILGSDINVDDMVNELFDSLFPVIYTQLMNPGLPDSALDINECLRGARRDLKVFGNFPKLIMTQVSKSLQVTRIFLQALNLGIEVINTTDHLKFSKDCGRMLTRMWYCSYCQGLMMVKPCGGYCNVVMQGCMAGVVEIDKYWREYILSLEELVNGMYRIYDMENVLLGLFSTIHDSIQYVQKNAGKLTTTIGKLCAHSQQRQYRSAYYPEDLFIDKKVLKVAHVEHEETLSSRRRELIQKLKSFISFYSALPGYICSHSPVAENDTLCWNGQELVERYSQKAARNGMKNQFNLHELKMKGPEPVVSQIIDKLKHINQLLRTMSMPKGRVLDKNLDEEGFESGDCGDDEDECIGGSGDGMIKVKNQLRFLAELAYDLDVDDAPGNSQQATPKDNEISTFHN

B1: reference CD137 antibody (SEQ ID NOs: 26 and 27) (antibody, human IgG4 S228P, kappa, V domains shown)
VH: QVQLQQWGAGLLKPSETLSLTCAVYGGSFSGYYWSWIRQSPEKGLEWIGEINHGGYVTYNPSLESRVTISVDTSKNQFSLKLSSVTAADTAVYYCARDYGPGNYDWYFDLWGRGTLVTVSS
VL: EIVLTQSPATLSLSPGERATLSCRASQSVSSYLAWYQQKPGQAPRLLIYDASNRATGIPARFSGSGSGTDFTLTISSLEPEDFAVYYCQQRSNWPPALTFGGGTKVEIKR
- EC50 [1]: 9.61 nM
- binding result [2]: no binding (tested: 500 nM)
- EC50, CD137 Bioassay (NFkB-luc2/CD137 Jurkat cells co-cultured with Hep3B) [3]: 1.39 nM
- EC50, CD137 Bioassay (NFkB-luc2/CD137 Jurkat cells co-cultured with HepG2) [3]: 0.94 nM
- EC50, CD137 Bioassay (NFkB-luc2/CD137 Jurkat cells co-cultured with MKN-45) [3]: 1.47 nM
- EC50, CD137 Bioassay (NFkB-luc2/CD137 Jurkat cells co-cultured with NCI-N87) [3]: 1.67 nM

B2: GPC3 antibody as included in the fusion protein (SEQ ID NOs: 81 and 82) (antibody, human IgG4 S228P, kappa, F234A L235A, V domains shown)
VH: QVQLVQSGAEVKKPGASVKVSCKASGYTFTDYEMHWVRQAPGQGLEWMGALDPKTGDTAYSQKFKGRVTLTADKSTSTAYMELSSLTSEDTAVYYCTRFYSYTYWGQGTLVTLVS
VL: DVVMTQSPLSLPVTPGEPASISCRSSQSLVHSNRNTYLHWYLQKPGQSPQLLIYKVSNRFSGVPDRFSGSGSGTDFTLKISRVEAEDVGVYYCSQNTHVPPTFGQGTKLEIKR
notes: also called GPC3 specific antibody
- Kd [4]: 0.686 nM
- koff [4]: 0.000248 s⁻¹
- kon [4]: 361000 M⁻¹ s⁻¹
- EC50 (read off the curve) [5]: ~5 nM
- EC50 [6]: 19.9 nM
- EC50 [7]: 0.23 nM
- EC50 [8]: 0.13 nM
- binding result [9]: no binding (tested: 100 nM)
- EC50 [10]: 1.46 nM
- Kd [11]: 0.737 nM
- koff [11]: 0.000151 s⁻¹
- kon [11]: 205000 M⁻¹ s⁻¹
- EC50 [12]: 16.7 nM
- binding result [13]: no binding (tested: 100 nM)
- EC50 [14]: 6.35 nM
